“And” between values parts separate entries of the source, which are not always exact repeats. Equal values may be shown once. Each block holds one substance with its values, some of them ahead of it.
Legend:
[1] = target: MPR 300 affinity matrix (Man6P-receptor affinity matrix); test: MPR 300 affinity matrix binding of enzyme batches
[2] = target: MPR 300 affinity matrix (Man6P-receptor affinity matrix); test: MPR 300 affinity column
[3] = target: MPR 300 affinity matrix (Man6P-receptor affinity matrix); test: overnight incubation with MPR 300 affinity matrix; activity in unbound, glucose 6-phosphate and mannose 6-phosphate eluted fractions

- % phosphorylation (fraction of enzyme binding the Man6P-receptor affinity matrix) [1]: 40% and 30% and 42%
- percent of the amount of enzyme binding to the affinity matrix [1]: 40%
- percent bound to the MRP 300 column [2]: < 40%
- percent of LAMAN bound to the Man6P-receptor affinity matrix in a Man6P-dependent manner [3]: 4.2%
Substance: recombinant human lysosomal alpha-mannosidase (LAMAN) expressed in CHO cells (enzyme)

- percent of LAMAN activity bound to the Man6P-receptor affinity matrix [3]: 73.6%
Substance: recombinant mouse LAMAN with C-terminal polyhistidine tail, secreted from mannose 6-phosphate receptor deficient mouse embryonic fibroblasts (from UniProt O09159 50-1013) (enzyme)

- percent of LAMAN activity bound to the Man6P-receptor affinity matrix in a Man6P-dependent manner [3]: 6.4%
Substance: bovine LAMAN purified from kidney (from UniProt Q29451 51-999) (enzyme)

— patent EP1740204B1
